Where a chain is given by its changes, count along the chain named.
Experiments:
[1] = biological target: T1, design 34 G-CSFR(Ig-CRH)E, tag cleaved (human, UniProt Q99062 26-331); assay: SPR, WT G-CSF against design 34 G-CSFR(Ig-CRH)E; steady state derived affinity constant
T1 construct: also called Design 34 G-CSFR(Ig-CRH)E mutant
T1 chain: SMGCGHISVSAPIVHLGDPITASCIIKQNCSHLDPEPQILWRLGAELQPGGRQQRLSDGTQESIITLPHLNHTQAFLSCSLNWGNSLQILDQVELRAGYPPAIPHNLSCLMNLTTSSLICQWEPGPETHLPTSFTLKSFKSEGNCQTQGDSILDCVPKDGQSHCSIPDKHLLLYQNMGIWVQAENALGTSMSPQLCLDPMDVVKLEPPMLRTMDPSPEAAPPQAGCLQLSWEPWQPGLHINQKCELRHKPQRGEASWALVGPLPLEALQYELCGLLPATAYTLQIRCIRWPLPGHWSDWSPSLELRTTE

[2] = biological target: T2, design 35 G-CSFR(Ig-CRH)E, tag cleaved (human, UniProt Q99062 26-331); assay: SPR, WT G-CSF against design 35 G-CSFR(Ig-CRH)E, single-cycle kinetics
T2 chain: T1 chain with D168R, L172E, Q175E

[3] = biological target: T3, design 30 G-CSFR(Ig-CRH)E, tag cleaved (human, UniProt Q99062 26-331); assay: SPR, WT G-CSF against design 30 G-CSFR(Ig-CRH)E, single-cycle kinetics
T3 construct: also called Design 30 G-CSFR(Ig-CRH)E mutant
T3 chain: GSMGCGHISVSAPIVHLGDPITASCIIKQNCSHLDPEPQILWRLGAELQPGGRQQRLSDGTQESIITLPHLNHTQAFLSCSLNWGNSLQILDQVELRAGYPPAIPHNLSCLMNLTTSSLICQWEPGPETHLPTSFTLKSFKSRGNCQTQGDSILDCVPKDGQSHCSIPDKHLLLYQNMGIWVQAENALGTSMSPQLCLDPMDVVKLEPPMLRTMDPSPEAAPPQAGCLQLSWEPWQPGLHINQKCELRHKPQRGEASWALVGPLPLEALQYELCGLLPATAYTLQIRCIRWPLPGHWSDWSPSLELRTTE

[4] = biological target: T4, design 307 G-CSFR(Ig-CRH)E, tag cleaved (human, UniProt Q99062 26-331); assay: SPR, G-CSFRE amine-coupled, G-CSFE injected; steady state derived affinity constant
T4 chain: T1 chain with R42E, E142R, D168R, D198K, D201K, R289E
Method: (§1) To determine binding affinity of G-CSFE to G-CSFRE the G-CSFRE mutant was captured by standard amine coupling as described by the manufacturer (GE LifeSciences). Briefly, immediately after EDC/NHS activation, a 5 μg/mL solution of G-CSFRE in 10 mM NaOAc, pH 5.0, was injected at a flow rate of 5 μL/min until a receptor density of ˜700-900 RU was reached. The remaining active groups were quenched by a 420 s injection of 1 M ethanolamine hydrochloride-NaOH pH 8.5 at 10 μL/min. Using single-cycle kinetics, six concentrations of a two-fold dilution series of the corresponding G-CSFE mutant starting at 200 nM with a blank buffer control were sequentially injected at 25 μL/min for 300 s with a 1800 s dissociation phase, resulting in a set of sensorgrams with a buffer blank reference. The same sample titration was also performed on a reference cell with no variants captured. The chip was regenerated to prepare for the next injection cycle by one pulse of 10 mM glycine/HCl, pH 2.0, for 30 s at 30 μL/min.
(§2) Double-referenced sensorgrams from duplicate or triplicate repeat injections were analyzed using Biacore™ T200 Evaluation Software v3.0 and fit to the 1:1 Langmuir binding model.
Kinetic-derived affinity constants (KD) where obtained by fitting the association and dissociation phases of the curves. The KD of WT G-CSF for WT G-CSFR(Ig-CRH) ranged between 1.8-2.5E-9. For the cases in which the kinetic parameters could not be fit an attempt was made to derive a steady state affinity constant. In those cases, the KD fold change was calculated from the steady state derived KD for the WT G-CSF:WT G-CSFR(Ig-CRH) pair and is indicated in Table 7.

[5] = biological target: T5, WT G-CSFR(Ig-CRH), purified, tag cleaved (human, UniProt Q99062 26-331); assay: SPR (Biacore T200), WT receptor amine-coupled, cytokine injected
T5 construct: also called G-CSFRWT; wild type G-CSFR(Ig-CRH)
T5 chain: T3 chain with D169R
Method: (§3) The SPR binding assays were carried out on a Biacore T200 instrument (GE Healthcare, Mississauga, ON, Canada) with PBS-T (PBS+0.05% (v/v) Tween 20) running buffer at a temperature of 25° C. CM5 Series S sensor chip, Biacore amine coupling kit (NHS, EDC and 1 M ethanolamine), and 10 mM sodium acetate buffers were all purchased from GE Healthcare. PBS running buffer with 0.05% Tween20 (PBS-T) was purchased from Teknova Inc. (Hollister, CA). Designs were assessed in three different immobilization orientations.
(§4) To assess binding affinity of G-CSFE to G-CSFRWT, recombinant G-CSFRWT purified as described in Example 5 was captured as described above in this Example. Using single-cycle kinetics, six concentrations of a two-fold dilution series of each G-CSFE mutant starting at […] with a blank buffer control were sequentially injected as described above. The same sample titration was also performed on a reference cell with no variants captured. The G-CSFRWT surface was regenerated as described above.
as §2

[6] = biological target: T6, design 130 G-CSFR(Ig-CRH)E, tag cleaved (human, UniProt Q99062 26-331); assay: SPR, G-CSFRE amine-coupled, G-CSFE injected, single-cycle kinetics
T6 construct: also called 130 ECD (Ig-CRH)
T6 chain: T1 chain with R42E, E142R
Method: as §3, §1, §2

[7] = biological target: T7, design 134 G-CSFR(Ig-CRH)E, tag cleaved (human, UniProt Q99062 26-331); assay: as above
T7 construct: also called design 137 G-CSFR(Ig-CRH)E
T7 chain: T1 chain with R42E
Method: as §3, §1, §2

[8] = biological target: T5, WT G-CSFR(Ig-CRH), purified, tag cleaved; assay: SPR, single-cycle kinetics, G-CSFR(Ig-CRH) on the chip, G-CSF injected
Method: as §3, §4, §2

[9] = biological target: T5, WT G-CSFR(Ig-CRH), purified, tag cleaved; assay: SPR, WT G-CSFR(Ig-CRH) amine-coupled, G-CSFE injected, single-cycle kinetics
Method: as §3, §4

[10] = biological target: T2, design 35 G-CSFR(Ig-CRH)E, tag cleaved; assay: SPR, G-CSFRE amine-coupled, G-CSFE injected, single-cycle kinetics
Method: as §3, §1, §2

[11] = biological target: T8, design 304 G-CSFR(Ig-CRH)E, tag cleaved (human, UniProt Q99062 26-331); assay: as above
T8 chain: T1 chain with R42E, E94K, E142R
Method: as §3, §1, §2

[12] = biological target: T1, design 34 G-CSFR(Ig-CRH)E, tag cleaved; assay: as above
Method: as §3, §1, §2

[13] = biological target: T3, design 30 G-CSFR(Ig-CRH)E, tag cleaved; assay: as above
Method: as §3, §1, §2

B1: WT G-CSF, purified from insect cells, tag cleaved (ligand)
chain: TPLGPASSLPQSFLLKCLEQVRKIQGDGAALQEKLCATYKLCHPEELVLLGHSLGIPWAPLSSCPSQALQLAGCLSQLHSGLFLYQGLLQALEGISPELGPTLDTLQLDVADFATTIWQQMEELGMAPALQPTQGAMPAFASAFQRRAGGVLVASHLQSFLEVSYRVLRHLAQAAAENLYFQ
notes: protein of the SPR; also called G-CSFWT; wild type G-CSF
KD fold change (against WT:WT) [1]: 4260 fold
KD fold change (against WT:WT) [2]: 19 fold
KD fold change (against WT:WT) [3]: 774 fold

B2: design 307 G-CSFE, tag cleaved (ligand)
chain: B1 chain with S12E, K16D, E19K, E46R
KD fold change (against WT:WT) [4]: 0.6 fold
binding result [5]: no binding

B3: design 130 G-CSFE, tag cleaved (ligand)
chain: B1 chain with E46R, L108K, D112R
notes: also called design 137 G-CSFE; G-CSF137
KD fold change (against WT:WT) [6]: 0.9 fold
KD fold change (against WT:WT) [7]: 0.3 fold
binding result [8]: no binding

B4: design 35 G-CSFE, tag cleaved (ligand)
chain: B1 chain with T115K, E122R, E123R
notes: also called design 35 G-CSFE mutant
KD fold change (against WT:WT) [9]: 5 fold
KD fold change (against WT:WT) [10]: 3.3 fold

B5: design 304 G-CSFE, tag cleaved (ligand)
chain: B1 chain with E46R, L108K, D112R, R147E
binding result [5]: no binding
KD fold change (against WT:WT) [11]: 6.5 fold

B6: design 34 G-CSFE, tag cleaved (ligand)
chain: B1 chain with L108K, D112R, E122R, E123R
notes: also called design 34 G-CSFE mutant
KD fold change (against WT:WT) [9]: 33 fold
KD fold change (against WT:WT) [12]: 5 fold

B7: design 30 G-CSFE, tag cleaved (ligand)
chain: B1 chain with L108K, D112R
notes: also called design 30 G-CSFE mutant
KD fold change (against WT:WT) [9]: 20 fold
KD fold change (against WT:WT) [13]: 11 fold

Source: patent publication US20240254182A1 (PROVINCIAL HEALTH SERVICES AUTHORITY, published 2024)
